Laboratory results taken from PMC4359947.
Ends that are not written are not given here.

Target: MAGI-1 PDZ3 domain, Cy3-labelled, tag-free
Experiment: FRET or BRET

Binder: GAIPVMIPAQSKDGSIV (also: Cy5 label (approximately 1 dye/peptide), site not given here) [CAR (CAR^Ex7) C-terminus, Cy5-labelled, tag-free]
- Kd: 2 nM
